According to patent publication US20190022222A1, “NEUTRON CAPTURE THERAPY SYSTEM FOR ELIMINATING AMYLOID Beta-PROTEIN DEPOSITION PLAQUE” (NEUBORON MEDTECH LTD., priority 2016, published 2019):

B1: Gantenerumab: monoclonal antibody that binds to the N-terminal epitope of Aβ (antibody, chains of the INN, looked up, V domains shown)
VH: QVELVESGGGLVQPGGSLRLSCAASGFTFSSYAMSWVRQAPGKGLEWVSAINASGTRTYYADSVKGRFTISRDNSKNTLYLQMNSLRAEDTAVYYCARGKGNTHKPYGYVRYFDVWGQGTLVTVSS
VL: DIVLTQSPATLSLSPGERATLSCRASQSVSSSYLAWYQQKPGQAPRLLIYGASSRATGVPARFSGSGSGTDFTLTISSLEPEDFATYYCLQIYNMPITFGQGTKVEIK

Assays:
amyloid β-protein = amyloid β-protein (Homo sapiens, UniProt P05067); assay: equilibrium dissociation constant KD with amyloid β-protein solution; format: binding; conditions: amyloid β-protein solution 10 μM, compound 0.1 to 10 μM, room temperature 20 min
Chain of amyloid β-protein (P05067 672-713 limits assumed): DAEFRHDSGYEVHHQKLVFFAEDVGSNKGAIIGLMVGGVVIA
Experimental: In the examples of the present disclosure, the affinity of the ^10B-containing compound and the amyloid β-protein deposition plaque is evaluated by using the equilibrium dissociation constant KD value. KD can indicate the degree of dissociation of the two substances in the equilibrium state.
The amyloid β-protein solution was prepared at a concentration of 10 μM and mixed with compound I or compound II at different concentrations (concentrations ranging from 0.1 to 10 μM). […] In addition, a known compound capable of specifically binding to amyloid β-protein was used as a control and mixed with a amyloid β-protein solution at a concentration of 10 μM and allowed to stand at room temperature for 20 min. The equilibrium dissociation constant KD was also measured and calculated.

Aβ = conditions: phase III clinical trial, latest results; cited from earlier work
Chain of Aβ (P05067 672-711 limits assumed): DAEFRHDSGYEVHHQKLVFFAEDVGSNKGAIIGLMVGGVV

| Molecule | Kd (amyloid β-protein) | Aβ level in cerebrospinal fluid (Aβ) | tau protein level in cerebrospinal fluid (Aβ) |
| --- | --- | --- | --- |
| Cc1ccc(C(=O)/C=C/c2ccc(N)cc2)o1 [control] | 1590 nM | – | – |
| B1 | – | does not significantly reduce | significantly reduces |
